Results on nine molecules are retold here after patent US20250281611A1 (BIOSCEPTRE AUST, published 2025).

First the molecules themselves.
B1: CD19 BRIDGE variant B14 (Fab, V domains shown)
VH: EVQLVESGGGLVKPGGSLKLSCAASGYTFTSYVMHWVRQAPGKGLEWIGYINPYNDGTKYNEKFQGRVTISSDKSISTAYMELSSLRSEDTAMYYCARGTYYYGTRVFDYWGQGTLVTVSS
VL: DIVMTQSPATLSLSPGERATLSCRSSKSLQNVNGNTYLYWFQQKPGQSPQLLIYRMSNLNSGVPDRFSGSGSGTEFTLTISSLEPEDFAVYYCMQHLEYPITFGAGTKLEIKR
B2: CD19 BRIDGE variant B20 (Fab, V domains shown)
VH: B1 VH
VL: B1 VL
B3: CD19 BRIDGE variant B19 (Fab, V domains shown)
VH: B1 VH
VL: B1 VL
B4: CD19 BRIDGE variant B25 (Fab, V domains shown)
VH: B1 VH
VL: B1 VL
B5: CD19 BRIDGE variant B15 (Fab)
heavy: EVQLVESGGGLVKPGGSLKLSCAASGYTFTSYVMHWVRQAPGKGLEWIGYINPYNDGTKYNEKFQGRVTISSDKSISTAYMELSSLRSEDTAMYYCARGTYYYGTRVFDYWGQGTLVTVSSASTKGPSVFPLAPSSKSTSGGTAALGCLVKDYFPEPVTVSWNSGALTSGVHTFPAVLQSSGLYSLSSVVTVPSSSLGTQTYICNVNHKPSNTKVDKKVEPKSCHHHHHH
light: GHNYTTRNILPGLNITSGGGGSEPKSSDKTHTGGGGSDIVMTQSPATLSLSPGERATLSCRSSKSLQNVNGNTYLYWFQQKPGQSPQLLIYRMSNLNSGVPDRFSGSGSGTEFTLTISSLEPEDFAVYYCMQHLEYPITFGAGTKLEIKRTVAAPSVFIFPPSDEQLKSGTASVVCLLNNFYPREAKVQWKVDNALQSGNSQESVTEQDSKDSTYSLSSTLTLSKADYEKHKVYACEVTHQGLSSPVTKSFNRGEC
B6: CD19 BRIDGE variant B17 (Fab)
heavy: B5 heavy
light: GHNYTTRNILPGLNITSTFHKTSGSGKGSEPKSSDKTHTGGGGSDIVMTQSPATLSLSPGERATLSCRSSKSLQNVNGNTYLYWFQQKPGQSPQLLIYRMSNLNSGVPDRFSGSGSGTEFTLTISSLEPEDFAVYYCMQHLEYPITFGAGTKLEIKRTVAAPSVFIFPPSDEQLKSGTASVVCLLNNFYPREAKVQWKVDNALQSGNSQESVTEQDSKDSTYSLSSTLTLSKADYEKHKVYACEVTHQGLSSPVTKSFNRGEC
B7: CD19 BRIDGE variant B18 (Fab)
heavy: B5 heavy
light: GHNYTTRNILPGLNITSTFHKTSGSGKGGGGSEPKSSDKTHTGGGGSDIVMTQSPATLSLSPGERATLSCRSSKSLQNVNGNTYLYWFQQKPGQSPQLLIYRMSNLNSGVPDRFSGSGSGTEFTLTISSLEPEDFAVYYCMQHLEYPITFGAGTKLEIKRTVAAPSVFIFPPSDEQLKSGTASVVCLLNNFYPREAKVQWKVDNALQSGNSQESVTEQDSKDSTYSLSSTLTLSKADYEKHKVYACEVTHQGLSSPVTKSFNRGEC
B8: CD19 BRIDGE variant B16 (Fab)
heavy: B5 heavy
light: GHNYTTRNILPGLNITSTFHKTSGSGKEPKSSDKTHTGGGGSDIVMTQSPATLSLSPGERATLSCRSSKSLQNVNGNTYLYWFQQKPGQSPQLLIYRMSNLNSGVPDRFSGSGSGTEFTLTISSLEPEDFAVYYCMQHLEYPITFGAGTKLEIKRTVAAPSVFIFPPSDEQLKSGTASVVCLLNNFYPREAKVQWKVDNALQSGNSQESVTEQDSKDSTYSLSSTLTLSKADYEKHKVYACEVTHQGLSSPVTKSFNRGEC
B9: CD19 BRIDGE variant B21 (Fab)
heavy: B5 heavy
light: DFPGHNYTTRNILPGLNITSGGGGSEPKSSDKTHTDIVMTQSPATLSLSPGERATLSCRSSKSLQNVNGNTYLYWFQQKPGQSPQLLIYRMSNLNSGVPDRFSGSGSGTEFTLTISSLEPEDFAVYYCMQHLEYPITFGAGTKLEIKRTVAAPSVFIFPPSDEQLKSGTASVVCLLNNFYPREAKVQWKVDNALQSGNSQESVTEQDSKDSTYSLSSTLTLSKADYEKHKVYACEVTHQGLSSPVTKSFNRGEC

The first test addresses T1, nfP2X7 CAR 1.
T1 construct: CAR-positive cells gated by the co-expressed EGFR marker; also called nfP2X7 targeted CAR; nfP2X7 CAR on EGFR+ T cells
Briefly: flow cytometry, nfP2X7 CAR 1 T cells (EGFR+ gate), anti-His-FITC detection. How it is done:
(§1) nfP2X₇ CAR T cells were incubated with different BRiDGE variants at saturating concentrations. […] The MFI intensity correlates with the number of secondary bound antibodies bound to the BRiDGEs that are only detected if they are bound to the CAR T cells. EGFR was used as a marker gene to detect the CAR expression. Thus, the EGFR+ T cell population was defined as the CAR expressing cells and the EGFR− T cell population was defined as the CAR negative subset. MFI: median fluorescence intensity. EGFR: epidermal growth factor receptor. BLItz: Bio-Layer interferometry (BLI) technology using HIS-tag identification tips. HIS-tag MFI Ratio: relative index that is calculated by the testing condition MFI divided by the control MFI, which corresponds to the MFI measured on EGFR+ T cells (defined as CAR positive cells) divided by the MFI measured on the EGFR− T cells (defined as CAR negative cells). […] The higher the MFIR, the stronger the binding.
On to B1, for which the “MFI HisTag FITC in EGFR+ Population” value stood at 2.41.

For B2, the “MFI HisTag FITC in EGFR+ Population” value stood at 2.11.

Consider B3, for which the “MFI HisTag FITC in EGFR+ Population” value was found to be 2.16.

B4: the “MFI HisTag FITC in EGFR+ Population” value amounted to 2.28.

Take B5: the “MFI HisTag FITC in EGFR+ Population” value stood at 2.61.

Regarding B6, the “MFI HisTag FITC in EGFR+ Population” value is 2.25.

Regarding B7, the “MFI HisTag FITC in EGFR+ Population” value was 2.25.

As for B8, the “MFI HisTag FITC in EGFR+ Population” value was 2.34.

For the molecule B9, the “MFI HisTag FITC in EGFR+ Population” value was 2.19.

For a further test, the target named is T1, nfP2X7 CAR 1. Briefly: flow cytometry, anti-His-FITC, MFI on EGFR+ (CAR+) over EGFR- (CAR-) T cells. How it is done:
as §1
Regarding B1, the “HisTag MFI Ratio of EGFR+/EGFR-” value worked out at 4.5.

With B2, the “HisTag MFI Ratio of EGFR+/EGFR-” value is 4.1.

For the molecule B3, the “HisTag MFI Ratio of EGFR+/EGFR-” value stood at 4.1.

Consider B4, for which the “HisTag MFI Ratio of EGFR+/EGFR-” value came out at 4.

For the molecule B5, the “HisTag MFI Ratio of EGFR+/EGFR-” value came out at 4.8.

For B6, the “HisTag MFI Ratio of EGFR+/EGFR-” value was determined as 4.2.

On to B7, for which the “HisTag MFI Ratio of EGFR+/EGFR-” value came to 4.2.

For B8, the “HisTag MFI Ratio of EGFR+/EGFR-” value stood at 4.6.

Take B9: the “HisTag MFI Ratio of EGFR+/EGFR-” value was 4.1.

The target in a further test is T1, nfP2X7 CAR 1. The test can be described thus: flow cytometry, anti-His-FITC, MFI on EGFR+ (CAR+) T cells over background 0.44. How it is done: as §1
As for B1, the “HisTag MFI Ratio (background 0.44)” value stood at 5.5.

B2: the “HisTag MFI Ratio (background 0.44)” value was determined as 4.8.

In the case of B3, the “HisTag MFI Ratio (background 0.44)” value was determined as 4.9.

For the molecule B4, the “HisTag MFI Ratio (background 0.44)” value stood at 5.2.

Regarding B5, the “HisTag MFI Ratio (background 0.44)” value stood at 5.9.

As for B6, the “HisTag MFI Ratio (background 0.44)” value was determined as 5.1.

Regarding B7, the “HisTag MFI Ratio (background 0.44)” value was 5.1.

On to B8, for which the “HisTag MFI Ratio (background 0.44)” value amounted to 5.3.

Regarding B9, the “HisTag MFI Ratio (background 0.44)” value stood at 5.

A further test addresses T2, CD19 (UniProt P15391 20-556, limits assumed).
T2 construct: whole, on cells; also called CD19 on JeKo-1
T2 sequence (looked up): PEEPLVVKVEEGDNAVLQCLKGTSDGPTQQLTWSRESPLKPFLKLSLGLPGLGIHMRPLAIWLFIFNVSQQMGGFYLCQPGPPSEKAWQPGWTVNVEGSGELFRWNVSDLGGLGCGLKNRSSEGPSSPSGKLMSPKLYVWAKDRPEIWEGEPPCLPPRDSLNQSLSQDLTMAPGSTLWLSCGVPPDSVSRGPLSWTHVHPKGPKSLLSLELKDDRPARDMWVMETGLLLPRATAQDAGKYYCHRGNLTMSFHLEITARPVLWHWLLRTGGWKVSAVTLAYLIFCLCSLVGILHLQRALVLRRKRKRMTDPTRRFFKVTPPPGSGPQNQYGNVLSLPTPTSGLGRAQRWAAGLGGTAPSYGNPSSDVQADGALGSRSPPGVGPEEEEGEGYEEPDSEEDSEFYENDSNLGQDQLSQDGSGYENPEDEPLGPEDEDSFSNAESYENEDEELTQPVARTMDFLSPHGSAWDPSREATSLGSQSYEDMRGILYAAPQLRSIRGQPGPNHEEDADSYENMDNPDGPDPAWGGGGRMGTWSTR
Briefly: flow cytometry, JeKo-1 cells, BIL03s-AF647 detection, MFI over no-bridge control. The method, then: (§2) JeKo-1 cells were incubated with different CD19 BRiDGE variants at saturating concentrations. […] The MFI intensity correlates with the number of secondary bound antibodies bound to the CD19 BRiDGE variants that are only detected if they are bound to the JeKo-1 cells. MFI: median fluorescence intensity. BLitz: Bio-Layer interferometry (BLI) technology using HIS-tag identification tips. […] The higher the MFIR, the stronger the binding.
As to B1, the “MFIR BIL03 AF647” value came out at 15.8.

On to B2, for which the “MFIR BIL03 AF647” value turned out to be 9.07.

Take B3: the “MFIR BIL03 AF647” value was determined as 10.7.

B4: the “MFIR BIL03 AF647” value was 10.9.

For the molecule B5, the “MFIR BIL03 AF647” value turned out to be 18.7.

In the case of B6, the “MFIR BIL03 AF647” value came out at 20.2.

On to B7, for which the “MFIR BIL03 AF647” value worked out at 23.7.

With B8, the “MFIR BIL03 AF647” value was found to be 17.6.

On to B9, for which the “MFIR BIL03 AF647” value was 8.83.

A further test has as its target T2, CD19. The test can be described thus: flow cytometry, JeKo-1 cells, bridge at saturating conc., BIL03s-AF647 detection. How it is done:
as §2
Turning to B1, the “MFI Bil03 AF647” value came out at 7.27.

For the molecule B2, the “MFI Bil03 AF647” value was 4.17.

For B3, the “MFI Bil03 AF647” value was 4.9.

As for B4, the “MFI Bil03 AF647” value worked out at 5.

As for B5, the “MFI Bil03 AF647” value was 8.58.

With B6, the “MFI Bil03 AF647” value came to 9.3.

Consider B7, for which the “MFI Bil03 AF647” value was 10.9.

Regarding B8, the “MFI Bil03 AF647” value stood at 8.08.

Consider B9, for which the “MFI Bil03 AF647” value turned out to be 4.06.

In another test the target is T2, CD19. The test can be described thus: flow cytometry, JeKo-1 cells, anti-His-FITC detection, MFI over no-bridge control. The method, then: as §2
For B1, the “MFIR HisTag FITC” value came out at 4.05.

In the case of B2, the “MFIR HisTag FITC” value came out at 3.39.

As for B3, the “MFIR HisTag FITC” value came out at 3.51.

For B4, the “MFIR HisTag FITC” value turned out to be 3.01.

As for B5, the “MFIR HisTag FITC” value was 3.78.

For the molecule B6, the “MFIR HisTag FITC” value came out at 3.87.

Regarding B7, the “MFIR HisTag FITC” value came out at 3.94.

Take B8: the “MFIR HisTag FITC” value is 3.71.

Consider B9, for which the “MFIR HisTag FITC” value is 3.32.

Another test addresses T2, CD19. Briefly: flow cytometry, JeKo-1 cells, bridge at saturating conc., anti-His-FITC detection. The method, then: as §2
For the molecule B1, the “MFI HisTag FITC” value is 3.12.

With B2, the “MFI HisTag FITC” value amounted to 2.61.

B3: the “MFI HisTag FITC” value was 2.7.

Regarding B4, the “MFI HisTag FITC” value came out at 2.32.

B5: the “MFI HisTag FITC” value was found to be 2.91.

For the molecule B6, the “MFI HisTag FITC” value worked out at 2.98.

Take B7: the “MFI HisTag FITC” value was 3.03.

Take B8: the “MFI HisTag FITC” value was 2.86.

As for B9, the “MFI HisTag FITC” value worked out at 2.56.
